Substrate in the data set: C=C(O[C@@H]1C=C(C(=O)O)C=C[C@H]1O)C(=O)O
Description: steady-state kinetics. It counts as biochemical, Thermus thermophilus. Conditions: dehydration of chorismate to 12.

B1: MqnA (TTHA0803) (Thermus thermophilus HB8) (protein)
chain: MRPYVLGLPRYANVAPLHHFLRLEGFRVLHAVPAELNRLLLSGEVGLSLVSSYFYLKHQDSLGLLPDFSVAVLGRVYSVNLFHKGALPHLARVALTTESATSVALLKLLLKEAGAGPRYERREGGLELLSAYDGVLLIGDRAIKAYAALLPEVPETPHALPTRFGEVEVADLSTLWFQRTHLPFVFAVWAYRRENPPPKALVQALREARREGLGRLREVAEAEARRLGVHPLLLQHYLWNFRYHLEEPDRLGLKAFAEALGLPFAPMFYPE
Consider B1, for which the Michaelis-Menten constant (Km) was determined as 161.6 ± 7.1 µM and the kcat was 1.27 ± .02 s⁻¹.

(Values after article PMC3855536.)
